# IntAct's records for PubMed 20802462
# B1: ERO1-like protein alpha (Homo sapiens), Q96HE7 (parent)
# chain: MGRGWGFLFGLLGAVWLLSSGHGEEQPPETAAQRCFCQVSGYLDDCTCDVETIDRFNNYRLFPRLQKLLESDYFRYYKVNLKRPCPFWNDISQCGRRDCAVKPCQSDEVPDGIKSASYKYSEEANNLIEECEQAERLGAVDESLSEETQKAVLQWTKHDDSSDNFCEADDIQSPEAEYVDLLLNPERYTGYKGPDAWKIWNVIYEENCFKPQTIKRPLNPLASGQGTSEENTFYSWLEGLCVEKRAFYRLISGLHASINVHLSARYLLQETWLEKKWGHNITEFQQRFDGILTEGEGPRRLKNLYFLYLIELRALSKVLPFFERPDFQLFTGNKIQDEENKMLLLEILHEIKSFPLHFDENSFFAGDKKEAHKLKEDFRLHFRNISRIMDCVGCFKCRLWGKLQTQGLGTALKILFSEKLIANMPESGPSYEFHLTRQEIVSLFNAFGRISTSVKELENFRNLLQNIH
# Variants of: B1
# Details: with pdia1_human P4HB
row,effect of a mutation on the interaction,Variant
1,disrupting interaction,C94S
